Measurements reported in PMC8214733.

T1: sperm associated antigen 6 (SPAG6), full CDS fused to a proteinA-mCitrine tag, O75602
T1 chain: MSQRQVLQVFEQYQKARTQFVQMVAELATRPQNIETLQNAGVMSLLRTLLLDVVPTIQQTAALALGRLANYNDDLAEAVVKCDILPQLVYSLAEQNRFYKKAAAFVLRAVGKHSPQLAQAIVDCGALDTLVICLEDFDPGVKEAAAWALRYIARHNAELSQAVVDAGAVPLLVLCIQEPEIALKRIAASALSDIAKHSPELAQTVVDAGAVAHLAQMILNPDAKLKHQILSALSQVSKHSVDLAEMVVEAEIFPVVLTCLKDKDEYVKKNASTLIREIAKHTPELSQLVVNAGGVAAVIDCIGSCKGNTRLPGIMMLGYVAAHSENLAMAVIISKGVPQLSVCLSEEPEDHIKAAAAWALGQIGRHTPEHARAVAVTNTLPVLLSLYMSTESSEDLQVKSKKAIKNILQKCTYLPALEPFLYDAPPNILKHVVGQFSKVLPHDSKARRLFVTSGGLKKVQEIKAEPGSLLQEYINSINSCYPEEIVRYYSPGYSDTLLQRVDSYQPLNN


Tests used:
Experiment in all cases: BRET assay (LuTHy system)
[1] = molecular target: C-terminal portion of DYNC1H1 (1000 AA) fused to a proteinA-mCitrine tag (UniProt Q14204); settings: parent: est. 0.52; read off a plot
[2] = molecular target: sperm associated antigen 6 (SPAG6), full CDS fused to a proteinA-mCitrine tag (UniProt O75602); settings: parent: est. 0.41; read off a plot
[3] = molecular target: C-terminal portion of DYNC1H1 (1000 AA) fused to a proteinA-mCitrine tag, Q14204; settings: chain shown with the change;; parent: est. 0.52; read off a plot
[4] = molecular target: T1, sperm associated antigen 6 (SPAG6), …; settings: chain shown with the change;; parent: est. 0.41; read off a plot

Sequence of C-terminal portion of DYNC1H1 (1000 AA) fused to a proteinA-mCitrine tag, Q14204 (Q14204 whole entry, the tested form may be a part): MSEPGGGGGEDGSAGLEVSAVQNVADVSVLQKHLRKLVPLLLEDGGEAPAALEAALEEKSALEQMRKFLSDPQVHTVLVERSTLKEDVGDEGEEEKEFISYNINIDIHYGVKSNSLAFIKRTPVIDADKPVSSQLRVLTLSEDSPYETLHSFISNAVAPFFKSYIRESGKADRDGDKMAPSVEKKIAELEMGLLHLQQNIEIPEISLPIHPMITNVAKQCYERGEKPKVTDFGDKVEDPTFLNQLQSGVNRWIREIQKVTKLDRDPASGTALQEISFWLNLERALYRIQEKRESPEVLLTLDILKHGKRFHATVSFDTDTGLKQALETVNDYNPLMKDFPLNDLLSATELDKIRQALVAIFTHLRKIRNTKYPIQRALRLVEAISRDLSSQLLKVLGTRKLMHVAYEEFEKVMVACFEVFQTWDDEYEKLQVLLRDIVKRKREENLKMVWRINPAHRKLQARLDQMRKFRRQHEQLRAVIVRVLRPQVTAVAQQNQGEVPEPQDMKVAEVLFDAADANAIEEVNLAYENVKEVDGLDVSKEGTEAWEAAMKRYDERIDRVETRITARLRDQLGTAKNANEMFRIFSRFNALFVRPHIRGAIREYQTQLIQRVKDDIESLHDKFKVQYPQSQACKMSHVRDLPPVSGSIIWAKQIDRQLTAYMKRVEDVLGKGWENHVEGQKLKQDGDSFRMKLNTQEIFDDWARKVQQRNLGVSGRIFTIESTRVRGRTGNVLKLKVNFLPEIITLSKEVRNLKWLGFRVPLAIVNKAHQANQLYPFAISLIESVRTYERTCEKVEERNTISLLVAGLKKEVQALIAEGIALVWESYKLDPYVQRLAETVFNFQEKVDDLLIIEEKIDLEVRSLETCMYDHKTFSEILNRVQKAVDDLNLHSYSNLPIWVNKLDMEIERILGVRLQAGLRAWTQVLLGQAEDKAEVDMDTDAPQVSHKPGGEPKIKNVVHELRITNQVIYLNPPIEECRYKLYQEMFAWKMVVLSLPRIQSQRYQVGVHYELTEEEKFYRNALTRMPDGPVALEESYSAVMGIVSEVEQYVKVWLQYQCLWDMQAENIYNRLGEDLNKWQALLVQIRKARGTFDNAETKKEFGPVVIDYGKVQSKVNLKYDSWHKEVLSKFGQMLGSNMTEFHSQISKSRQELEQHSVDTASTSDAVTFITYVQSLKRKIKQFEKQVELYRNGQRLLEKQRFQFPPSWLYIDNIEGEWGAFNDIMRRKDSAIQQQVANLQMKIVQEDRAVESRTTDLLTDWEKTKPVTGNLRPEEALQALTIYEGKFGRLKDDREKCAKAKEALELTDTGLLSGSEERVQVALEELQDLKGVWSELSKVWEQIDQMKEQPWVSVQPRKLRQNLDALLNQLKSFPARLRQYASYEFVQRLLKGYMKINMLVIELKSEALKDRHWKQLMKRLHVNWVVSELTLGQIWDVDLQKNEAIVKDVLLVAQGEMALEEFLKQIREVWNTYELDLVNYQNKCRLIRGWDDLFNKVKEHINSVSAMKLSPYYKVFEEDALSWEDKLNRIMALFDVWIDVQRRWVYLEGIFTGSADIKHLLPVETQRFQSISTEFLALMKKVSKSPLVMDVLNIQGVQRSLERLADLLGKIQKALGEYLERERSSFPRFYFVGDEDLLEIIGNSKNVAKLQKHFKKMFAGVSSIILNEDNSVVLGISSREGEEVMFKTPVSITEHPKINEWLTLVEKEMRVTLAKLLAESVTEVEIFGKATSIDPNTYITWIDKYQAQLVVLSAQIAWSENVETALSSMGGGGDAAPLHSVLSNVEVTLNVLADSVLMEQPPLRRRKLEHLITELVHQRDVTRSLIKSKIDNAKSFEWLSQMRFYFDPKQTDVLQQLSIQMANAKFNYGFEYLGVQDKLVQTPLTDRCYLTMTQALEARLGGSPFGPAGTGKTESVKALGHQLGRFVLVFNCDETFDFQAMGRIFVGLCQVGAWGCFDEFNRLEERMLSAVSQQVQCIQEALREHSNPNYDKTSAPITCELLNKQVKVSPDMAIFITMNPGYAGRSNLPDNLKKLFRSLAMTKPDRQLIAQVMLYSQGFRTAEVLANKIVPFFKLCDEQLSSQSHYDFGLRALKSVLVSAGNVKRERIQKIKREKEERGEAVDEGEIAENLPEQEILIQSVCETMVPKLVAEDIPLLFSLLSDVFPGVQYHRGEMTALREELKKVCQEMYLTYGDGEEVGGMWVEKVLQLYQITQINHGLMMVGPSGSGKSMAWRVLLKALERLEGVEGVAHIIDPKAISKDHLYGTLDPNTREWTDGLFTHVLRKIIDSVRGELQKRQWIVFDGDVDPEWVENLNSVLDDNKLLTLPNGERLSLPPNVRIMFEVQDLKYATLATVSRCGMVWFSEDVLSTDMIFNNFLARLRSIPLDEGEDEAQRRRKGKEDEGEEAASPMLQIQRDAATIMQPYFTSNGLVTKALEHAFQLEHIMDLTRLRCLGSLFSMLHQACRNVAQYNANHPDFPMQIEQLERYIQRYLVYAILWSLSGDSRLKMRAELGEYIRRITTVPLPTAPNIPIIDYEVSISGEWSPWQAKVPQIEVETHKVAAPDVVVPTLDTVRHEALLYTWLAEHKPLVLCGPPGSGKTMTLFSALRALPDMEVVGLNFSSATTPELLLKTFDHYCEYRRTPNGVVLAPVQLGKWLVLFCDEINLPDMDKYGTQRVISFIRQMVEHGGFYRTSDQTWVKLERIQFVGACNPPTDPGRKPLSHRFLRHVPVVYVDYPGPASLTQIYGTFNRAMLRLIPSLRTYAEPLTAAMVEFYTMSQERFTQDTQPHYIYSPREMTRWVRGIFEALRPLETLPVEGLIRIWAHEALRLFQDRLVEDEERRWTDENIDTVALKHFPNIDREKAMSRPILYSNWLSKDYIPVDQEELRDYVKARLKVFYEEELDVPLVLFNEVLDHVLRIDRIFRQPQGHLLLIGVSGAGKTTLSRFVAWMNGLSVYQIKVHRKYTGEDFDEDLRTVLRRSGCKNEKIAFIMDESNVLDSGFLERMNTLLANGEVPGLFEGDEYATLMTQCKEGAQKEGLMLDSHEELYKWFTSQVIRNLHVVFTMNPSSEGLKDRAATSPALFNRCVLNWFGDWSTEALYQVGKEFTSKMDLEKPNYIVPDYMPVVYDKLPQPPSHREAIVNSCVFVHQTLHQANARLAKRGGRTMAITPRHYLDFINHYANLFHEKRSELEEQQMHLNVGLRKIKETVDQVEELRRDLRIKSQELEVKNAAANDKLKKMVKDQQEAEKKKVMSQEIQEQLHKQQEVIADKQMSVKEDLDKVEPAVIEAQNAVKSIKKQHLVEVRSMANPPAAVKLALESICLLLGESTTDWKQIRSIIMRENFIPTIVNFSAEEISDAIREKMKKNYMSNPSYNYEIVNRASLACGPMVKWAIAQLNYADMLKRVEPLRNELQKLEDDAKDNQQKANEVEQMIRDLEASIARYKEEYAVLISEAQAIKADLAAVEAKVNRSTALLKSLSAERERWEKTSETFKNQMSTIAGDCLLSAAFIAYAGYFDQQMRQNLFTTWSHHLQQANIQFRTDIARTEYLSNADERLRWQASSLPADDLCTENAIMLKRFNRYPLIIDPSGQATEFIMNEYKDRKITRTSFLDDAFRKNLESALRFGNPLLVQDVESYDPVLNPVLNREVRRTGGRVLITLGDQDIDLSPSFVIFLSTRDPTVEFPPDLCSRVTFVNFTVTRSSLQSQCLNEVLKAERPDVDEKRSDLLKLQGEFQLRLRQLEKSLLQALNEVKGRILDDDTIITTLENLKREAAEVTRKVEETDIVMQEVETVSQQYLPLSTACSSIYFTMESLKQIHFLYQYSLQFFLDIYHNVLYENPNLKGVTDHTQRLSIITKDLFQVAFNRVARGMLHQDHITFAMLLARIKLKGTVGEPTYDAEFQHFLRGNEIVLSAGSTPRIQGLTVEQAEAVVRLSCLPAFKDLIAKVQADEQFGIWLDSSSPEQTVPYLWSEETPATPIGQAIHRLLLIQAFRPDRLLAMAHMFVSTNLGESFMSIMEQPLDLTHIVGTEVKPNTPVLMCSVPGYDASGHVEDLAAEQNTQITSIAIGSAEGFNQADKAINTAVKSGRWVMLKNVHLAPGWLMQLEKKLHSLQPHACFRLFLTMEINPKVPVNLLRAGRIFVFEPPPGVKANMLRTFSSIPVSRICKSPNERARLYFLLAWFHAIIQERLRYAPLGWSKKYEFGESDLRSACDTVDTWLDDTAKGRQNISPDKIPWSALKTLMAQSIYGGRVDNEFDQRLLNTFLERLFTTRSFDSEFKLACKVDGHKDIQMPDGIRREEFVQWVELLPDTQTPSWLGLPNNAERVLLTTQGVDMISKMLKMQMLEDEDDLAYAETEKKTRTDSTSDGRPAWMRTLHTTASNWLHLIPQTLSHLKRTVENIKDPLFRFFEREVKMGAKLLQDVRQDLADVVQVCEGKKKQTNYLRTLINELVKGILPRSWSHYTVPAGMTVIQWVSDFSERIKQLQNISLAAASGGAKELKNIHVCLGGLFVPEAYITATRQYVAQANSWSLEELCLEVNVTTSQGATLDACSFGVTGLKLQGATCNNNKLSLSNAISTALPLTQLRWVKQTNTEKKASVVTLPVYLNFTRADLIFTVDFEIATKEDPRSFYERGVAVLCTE

| response [1] | response [2] | response [3] | response [4] | Molecule |
| --- | --- | --- | --- | --- |
| 0.55 | 0.33 |  |  | coiled-coil domain-containing protein 103 (CCDC103), full-length coding sequence fused to a Nano-luciferase (NL)-Myc tag (from UniProt Q8IW40) p.Ala11Pro |
|  |  | 0.38 | 0.22 | coiled-coil domain-containing protein 103 (CCDC103), full-length coding sequence fused to a Nano-luciferase (NL)-Myc tag, Q8IW40 p.His154Pro (protein) MERNDIINFKALEKELQAALTADEKYKRENAAKLRAVEQRVASYEEFRGIVLASHLKPLERKDKMGGKRTVPWNCHTIQGRTFQDVATEISPEKAPLQPETSADFYRDWRRHLPSGPERYQALLQLGGPRLGCLFQTDVGFGLLGELLVALADPVGPADRAAVLGILCSLASTGRFTLNLSLLSRAERESCKGLFQKLQAMGNPRSVKEGLSWEEQGLEEQSGGLQEEERLLQELLELYQVD |
